Substrate: CCCCCCCCCCCCCCCC(=O)SCCNC(=O)CCNC(=O)[C@H](O)C(C)(C)COP(=O)(O)OP(=O)(O)OC[C@H]1O[C@@H](n2cnc3c(N)ncnc32)[C@H](O)[C@@H]1OP(=O)(O)O
Experiment: TEAD2 YBD autopalmitoylation kinetics, palmitoyl-CoA dose-dependency
Assay type: biochemical, human
Conditions: other: recombinant TEAD2 YBD, alkyne palmitoyl-CoA, 3 min (FIG. 2J); pH 6.4
Description: Intact mass spectrometry analysis of the recombinant TEAD2-YBD was carried out. The peak corresponding to unmodified TEAD2 at 26497 Dalton. A small side peak was also observed at 26736 Dalton (FIG. 2E), consistent with a palmitate modification to the protein. […] Moreover, autopalmitoylation of TEAD2 YBD was confirmed by acyl-biotin exchange (ABE) assay, which converts S-palmitoylation to stable biotinylation for detection (FIG. 2G). With 1 μM of palmitoyl-CoA at neutral pH, TEAD2 YBD was autopalmitoylated within 2 min, and the palmitoylation levels reached saturation after 10 min (FIG. 2H). To determine dose-dependency of palmitoyl-CoA, recombinant TEAD2 YBD was incubated with various concentrations of alkyne palmitoyl-CoA for 3 min, and the reaction rate was determined by quantifying the intensities of streptavidin blots (FIG. 2I). […] The physiological palmitoyl-CoA concentrations range from 100 nM to 10 μM in cells.
Recombinant GST-TEAD2 or His6TEAD2 (500 ng) protein was incubated with the indicated concentrations of alkyne palmitoyl-CoA (Cayman Chemical) for 2 h or the indicated time in 50 mM MES, pH 6.4. […] Samples were analyzed by SDS-PAGE and streptavidin HRP. Bands intensity obtained from streptavidin blot were quantified using Image J (NIH) and the rate of palmitoylation in arbitrary unit was plotted against the concentration of palmitoyl-CoA. […]

B1: TEAD2 YBD (Homo sapiens) (protein)
chain: AWQARGLGTARLQLVEFSAFVEPPDAVDSYQRHLFVHISQHCPSPGAPPLESVDVRQIYDKFPEKKGGLRELYDRGPPHAFFLVKFWADLNWGPSGEEAGAGGSISSGGFYGVSSQYESLEHMTLTCSSKVCSFGKQVVEKVETERAQLEDGRFVYRLLRSPMCEYLVNFLHKLRQLPERYMMNSVLENFTILQVVTNRDTQELLLCTAYVFEVSTSERGAQHHIYRLVRD
notes: The cDNA encoding human TEAD2 (residues 217-447, TEAD2^217-447) was cloned into a pET29 vector; made in house; host or cells: E. coli BL21(DE3)-T1R
- Km: 0.8 µM
